Measurements as given in article PMC4538830.

Target: T1, full-length recombinant His tagged CTNNBL1 (human), Q8WYA6
T1 chain: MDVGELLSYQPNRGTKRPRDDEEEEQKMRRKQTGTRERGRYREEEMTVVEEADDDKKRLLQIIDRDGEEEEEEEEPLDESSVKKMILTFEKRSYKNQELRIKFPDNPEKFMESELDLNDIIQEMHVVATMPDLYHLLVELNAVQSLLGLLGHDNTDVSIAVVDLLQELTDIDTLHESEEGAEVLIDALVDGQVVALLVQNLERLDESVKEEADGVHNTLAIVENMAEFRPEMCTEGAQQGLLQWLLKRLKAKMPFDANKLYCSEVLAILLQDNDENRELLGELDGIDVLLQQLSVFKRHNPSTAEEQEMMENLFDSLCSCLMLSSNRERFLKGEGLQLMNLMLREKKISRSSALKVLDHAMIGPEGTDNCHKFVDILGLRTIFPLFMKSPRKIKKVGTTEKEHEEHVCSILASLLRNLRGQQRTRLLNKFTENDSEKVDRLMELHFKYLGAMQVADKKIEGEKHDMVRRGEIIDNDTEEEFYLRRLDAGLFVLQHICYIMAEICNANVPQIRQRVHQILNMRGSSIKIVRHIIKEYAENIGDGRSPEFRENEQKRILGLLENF
Experiment: SEC-MALS; CTNNBL1 (full length or [77–563]) alone; also in high salt buffer (0.5 M NaCl) or with CWC15[80–229] added; Supplementary Figure S7
Details: remark: other sources report otherwise

- stoichiometry N: 3
B1: full-length recombinant His tagged CTNNBL1, Q8WYA6 1-563 (natural protein)
chain: MDVGELLSYQPNRGTKRPRDDEEEEQKMRRKQTGTRERGRYREEEMTVVEEADDDKKRLLQIIDRDGEEEEEEEEPLDESSVKKMILTFEKRSYKNQELRIKFPDNPEKFMESELDLNDIIQEMHVVATMPDLYHLLVELNAVQSLLGLLGHDNTDVSIAVVDLLQELTDIDTLHESEEGAEVLIDALVDGQVVALLVQNLERLDESVKEEADGVHNTLAIVENMAEFRPEMCTEGAQQGLLQWLLKRLKAKMPFDANKLYCSEVLAILLQDNDENRELLGELDGIDVLLQQLSVFKRHNPSTAEEQEMMENLFDSLCSCLMLSSNRERFLKGEGLQLMNLMLREKKISRSSALKVLDHAMIGPEGTDNCHKFVDILGLRTIFPLFMKSPRKIKKVGTTEKEHEEHVCSILASLLRNLRGQQRTRLLNKFTENDSEKVDRLMELHFKYLGAMQVADKKIEGEKHDMVRRGEIIDNDTEEEFYLRRLDAGLFVLQHICYIMAEICNANVPQIRQRVHQILNMRGSSIKIVRHIIKEYAENIGDGRSPEFRENEQKRILGLLENF
